In paper PMC6345845:

What was measured:
14-3-3 = 14-3-3 (UniProt P63104); experiment: AUC; sedimentation velocity, SEC buffer, 20 °C, 42 000 rpm; 14-3-3 + P-PI4KB + Rab11; stoichiometries independent of Rab11 nucleotide state
[1] = biological target: phosphorylated PI4KB (residues 128-799, internal deletion 423-522, T292R, phosphorylated at S294 by PKA) (human) (UniProt Q9UBF8); experiment: as above
PI4KB (Homo sapiens) = PI4KB (Homo sapiens) (UniProt Q9UBF8); details: cited from earlier work
[2] = biological target: phosphorylated PI4KB (residues 128-799, internal deletion 423-522, T292R, phosphorylated at S294 by PKA) (human) (UniProt Q9UBF8); experiment: AUC; sedimentation velocity, SEC buffer, 20 °C, 42 000 rpm; P-PI4KB alone (20 µM) and with Rab11; stoichiometries independent of Rab11 nucleotide state
[3] = biological target: pseudo-wt PI4KB labeled with Atto488 (human) (UniProt Q9UBF8); experiment: fluorescence cross-correlation spectroscopy (FCCS); on GUV membrane; Atto488-PI4KB attached by tethered ACBD3; mCherry-Rab11-His tethered to the membrane via His tag; proteins approximately 50 nM
Sequence of pseudo-wt PI4KB labeled with Atto488 (human) (Q9UBF8 other isoform, or with tags, fused parts or gaps): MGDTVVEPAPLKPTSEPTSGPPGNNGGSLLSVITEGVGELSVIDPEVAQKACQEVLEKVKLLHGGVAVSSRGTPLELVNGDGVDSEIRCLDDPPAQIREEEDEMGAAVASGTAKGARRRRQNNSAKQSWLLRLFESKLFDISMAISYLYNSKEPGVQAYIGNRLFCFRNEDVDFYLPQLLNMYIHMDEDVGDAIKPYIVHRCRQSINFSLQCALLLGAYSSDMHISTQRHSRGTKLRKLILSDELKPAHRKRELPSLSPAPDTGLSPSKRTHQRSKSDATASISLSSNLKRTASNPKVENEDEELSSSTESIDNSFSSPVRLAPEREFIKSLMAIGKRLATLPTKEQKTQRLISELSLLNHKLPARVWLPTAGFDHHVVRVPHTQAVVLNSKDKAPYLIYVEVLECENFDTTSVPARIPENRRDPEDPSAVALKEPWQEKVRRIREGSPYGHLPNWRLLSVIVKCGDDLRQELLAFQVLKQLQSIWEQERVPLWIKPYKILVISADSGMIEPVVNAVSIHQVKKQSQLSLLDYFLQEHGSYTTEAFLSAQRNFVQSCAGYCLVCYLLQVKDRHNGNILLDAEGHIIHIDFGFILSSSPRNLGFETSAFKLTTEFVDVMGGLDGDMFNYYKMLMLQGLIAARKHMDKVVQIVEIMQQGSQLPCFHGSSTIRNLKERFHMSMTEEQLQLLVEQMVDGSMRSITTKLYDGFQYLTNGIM

Sequence of phosphorylated PI4KB (residues 128-799, internal deletion 423-522, T292R, phosphorylated at S294 by PKA) (human) (Q9UBF8 other isoform, or with tags, fused parts or gaps with the stated changes): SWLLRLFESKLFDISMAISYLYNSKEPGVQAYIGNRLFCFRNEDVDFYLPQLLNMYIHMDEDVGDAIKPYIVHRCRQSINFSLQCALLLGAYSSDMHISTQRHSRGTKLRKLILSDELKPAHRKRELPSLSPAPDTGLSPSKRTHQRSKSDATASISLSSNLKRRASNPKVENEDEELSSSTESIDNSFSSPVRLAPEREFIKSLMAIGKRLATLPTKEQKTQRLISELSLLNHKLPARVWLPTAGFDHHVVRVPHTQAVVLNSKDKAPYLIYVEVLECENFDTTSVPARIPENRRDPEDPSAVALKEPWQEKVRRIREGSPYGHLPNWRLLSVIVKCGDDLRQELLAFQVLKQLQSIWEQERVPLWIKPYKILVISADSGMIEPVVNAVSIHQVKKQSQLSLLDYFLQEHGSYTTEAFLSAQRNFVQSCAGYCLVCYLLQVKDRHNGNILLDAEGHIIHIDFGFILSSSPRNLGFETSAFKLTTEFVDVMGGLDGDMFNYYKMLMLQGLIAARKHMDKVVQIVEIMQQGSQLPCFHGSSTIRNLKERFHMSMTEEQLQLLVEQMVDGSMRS
Sequence of ACBD3 (Q9H3P7 whole entry): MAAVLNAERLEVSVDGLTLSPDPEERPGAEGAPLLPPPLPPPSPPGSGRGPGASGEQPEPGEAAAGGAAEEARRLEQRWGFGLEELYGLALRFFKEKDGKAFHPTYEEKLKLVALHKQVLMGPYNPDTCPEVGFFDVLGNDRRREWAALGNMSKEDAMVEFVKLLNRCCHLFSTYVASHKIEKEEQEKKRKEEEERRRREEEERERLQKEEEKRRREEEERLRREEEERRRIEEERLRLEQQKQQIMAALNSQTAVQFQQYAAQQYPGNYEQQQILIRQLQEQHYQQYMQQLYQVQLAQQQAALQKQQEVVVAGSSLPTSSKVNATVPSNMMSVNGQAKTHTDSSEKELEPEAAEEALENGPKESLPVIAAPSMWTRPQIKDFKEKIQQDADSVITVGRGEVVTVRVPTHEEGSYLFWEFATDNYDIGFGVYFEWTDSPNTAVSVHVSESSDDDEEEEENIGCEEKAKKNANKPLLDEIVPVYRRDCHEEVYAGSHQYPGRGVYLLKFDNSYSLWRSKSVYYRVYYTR
Sequence of PI4KB (Homo sapiens) (Q9UBF8 2-816): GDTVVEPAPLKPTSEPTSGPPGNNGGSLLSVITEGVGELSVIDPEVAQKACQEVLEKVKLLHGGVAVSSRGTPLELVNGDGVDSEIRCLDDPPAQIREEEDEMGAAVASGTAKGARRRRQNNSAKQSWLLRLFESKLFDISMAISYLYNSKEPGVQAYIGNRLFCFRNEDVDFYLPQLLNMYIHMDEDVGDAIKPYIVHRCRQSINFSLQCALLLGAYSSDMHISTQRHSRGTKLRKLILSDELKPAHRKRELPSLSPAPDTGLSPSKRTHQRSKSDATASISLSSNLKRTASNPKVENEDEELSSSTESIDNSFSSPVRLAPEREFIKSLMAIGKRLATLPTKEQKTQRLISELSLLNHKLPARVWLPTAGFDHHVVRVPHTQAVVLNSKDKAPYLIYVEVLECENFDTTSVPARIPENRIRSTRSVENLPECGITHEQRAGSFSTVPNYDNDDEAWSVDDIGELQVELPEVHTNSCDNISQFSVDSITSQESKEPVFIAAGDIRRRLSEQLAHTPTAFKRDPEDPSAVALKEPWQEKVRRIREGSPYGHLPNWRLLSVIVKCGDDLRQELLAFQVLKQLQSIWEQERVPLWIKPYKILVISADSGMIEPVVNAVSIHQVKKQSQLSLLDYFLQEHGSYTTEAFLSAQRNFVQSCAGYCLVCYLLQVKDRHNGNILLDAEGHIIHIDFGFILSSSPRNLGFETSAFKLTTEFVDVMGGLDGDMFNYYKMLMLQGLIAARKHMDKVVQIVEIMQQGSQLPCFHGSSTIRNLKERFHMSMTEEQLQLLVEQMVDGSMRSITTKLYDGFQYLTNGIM

Q: Which results are given for “14-3-3 (from UniProt P63104 1-230) (natural protein)”?
A: stoichiometry N (14-3-3): 2; stoichiometry N (14-3-3 chains per PI4KB) [1]: 2

Q: For ACBD3 (from UniProt Q9H3P7), which Kd (PI4KB (Homo sapiens)) is on record?
A: 300 nM

Q: For “Rab11 (from UniProt P62491 1-216) (natural protein)”, which stoichiometry N [1] is on record?
A: 1

Q: And the stoichiometry N [2]?
A: 1

Q: Which percent of Rab11 in the complex [3] does the source give for “mCherry-Rab11-His (membrane tethered) (from UniProt P62491 1-216) (natural protein)” here?
A: 10%
